This is an account of results in patent publication US20170342144A1 (Sanofi, published 2017).

Assay in all cases: Biacore off-rate vs wt GC1008, 50 nM
For one experiment, the target named is T1, human TGFβ1 (human, UniProt P01137 279-390).
T1 construct: also called TGFβ1 homodimer
The source says: (§1) Plasmids encoding either the GC1008 heavy chain or light chain were used as a template in PCR-based mutagenesis reactions. Mutations to the encoding DNA were made to create 155 single amino acid substitutions of the encoded heavy chain amino acid sequence and one single amino acid substitution of the encoded light chain amino acid sequence. A QuikChange® Lightning Site-Directed Mutagenesis kit (Agilent Technologies, Santa Clara Calif.) was used according to the manufacturer's instructions to create DNA mutations using a set of forward and reverse primers, either designed for a specific amino acid or for all 20 amino acids with a degenerate codon (NNK). After sequencing confirmation, identified mutant DNA was paired with a wild-type light or heavy chain DNA for transfection into an Expi293F™ host cell suspension (Life Techonologies Corp., Grand Island, N.Y.). At 4 days post-transfection, conditioned media (1 mL) was harvested and purified using a 1 mL Protein A PhyTip® column (PhyNexus, Inc., San Jose, Calif.) and a PureSpeed™ 12-channel pipette (Rainin Instrument LLC, Oakland, Calif.). Purified variant antibody samples were analyzed in duplicate on a Biacore® 3000 (GE Healthcare) at 50 nM concentrations, using the 100 RU level TGFβ1, 2, and 3 immobilized surfaces. The off-rate (kd) of the variants was divided by the kd of the wild-type control to obtain the fold change in the kd. […] A heat map was generated to visualize the results. Variants that completely lost affinity for TGFβ were shown in red without numbers.

Another experiment addresses T2, human TGFβ2 (human, UniProt P61812 303-414).
T2 construct: also called TGFβ2 homodimer
T2 sequence: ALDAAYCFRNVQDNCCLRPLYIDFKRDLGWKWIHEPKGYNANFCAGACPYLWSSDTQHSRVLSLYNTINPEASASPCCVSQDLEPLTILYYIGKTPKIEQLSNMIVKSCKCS
Description: as §1

Another experiment concerns the target T3, human TGFβ3 (human, UniProt P10600 301-412).
T3 sequence: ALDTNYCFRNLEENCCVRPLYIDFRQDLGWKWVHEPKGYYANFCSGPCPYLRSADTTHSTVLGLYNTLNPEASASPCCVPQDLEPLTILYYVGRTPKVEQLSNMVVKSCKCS
Description: as §1

T1 sequence (P01137 279-390 limits assumed): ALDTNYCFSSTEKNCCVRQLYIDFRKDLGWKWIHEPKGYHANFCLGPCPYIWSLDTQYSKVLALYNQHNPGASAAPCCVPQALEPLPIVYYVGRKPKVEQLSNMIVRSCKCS

B1: D56G (antibody, V domains shown)
VH: QVQLVQSGAEVKKPGSSVKVSCKASGYTFSSNVISWVRQAPGQGLEWMGGVIPIVGIANYAQRFKGRVTITADESTSTTYMELSSLRSEDTAVYYCASTLGLVLDAMDYWGQGTLVTVSS
VL: ETVLTQSPGTLSLSPGERATLSCRASQSLGSSYLAWYQQKPGQAPRLLIYGASSRAPGIPDRFSGSGSGTDFTLTISRLEPEDFAVYYCQQYADSPITFGQGTRLEIK
notes: GC1008 IgG4 variant
For the molecule B1, the kd var/kd wt was found to be 1.4 in the experiment with human TGFβ1, 1.5 with human TGFβ2 and 1.1 with human TGFβ3.

B2: D56Q (antibody, V domains shown)
VH: QVQLVQSGAEVKKPGSSVKVSCKASGYTFSSNVISWVRQAPGQGLEWMGGVIPIVQIANYAQRFKGRVTITADESTSTTYMELSSLRSEDTAVYYCASTLGLVLDAMDYWGQGTLVTVSS
VL: ETVLTQSPGTLSLSPGERATLSCRASQSLGSSYLAWYQQKPGQAPRLLIYGASSRAPGIPDRFSGSGSGTDFTLTISRLEPEDFAVYYCQQYADSPITFGQGTRLEIK
notes: GC1008 IgG4 variant
As to B2, the values for the kd var/kd wt in the experiment with human TGFβ1, in the experiment with human TGFβ2 and with human TGFβ3 were 1.1, 1.3 and 1, respectively.

B3: D56S (antibody, V domains shown)
VH: QVQLVQSGAEVKKPGSSVKVSCKASGYTFSSNVISWVRQAPGQGLEWMGGVIPIVSIANYAQRFKGRVTITADESTSTTYMELSSLRSEDTAVYYCASTLGLVLDAMDYWGQGTLVTVSS
VL: ETVLTQSPGTLSLSPGERATLSCRASQSLGSSYLAWYQQKPGQAPRLLIYGASSRAPGIPDRFSGSGSGTDFTLTISRLEPEDFAVYYCQQYADSPITFGQGTRLEIK
notes: GC1008 IgG4 variant
Regarding B3, the results for the kd var/kd wt with human TGFβ1, with human TGFβ2 and with human TGFβ3 were 1.1, 1.3 and 1, respectively.

B4: D56N (antibody, V domains shown)
VH: QVQLVQSGAEVKKPGSSVKVSCKASGYTFSSNVISWVRQAPGQGLEWMGGVIPIVNIANYAQRFKGRVTITADESTSTTYMELSSLRSEDTAVYYCASTLGLVLDAMDYWGQGTLVTVSS
VL: ETVLTQSPGTLSLSPGERATLSCRASQSLGSSYLAWYQQKPGQAPRLLIYGASSRAPGIPDRFSGSGSGTDFTLTISRLEPEDFAVYYCQQYADSPITFGQGTRLEIK
notes: GC1008 IgG4 variant
Take B4: the kd var/kd wt with human TGFβ1 is 1.2; with human TGFβ2 it was 1.4; with human TGFβ3 it was 0.9.

B5: D56I (antibody, V domains shown)
VH: QVQLVQSGAEVKKPGSSVKVSCKASGYTFSSNVISWVRQAPGQGLEWMGGVIPIVIIANYAQRFKGRVTITADESTSTTYMELSSLRSEDTAVYYCASTLGLVLDAMDYWGQGTLVTVSS
VL: ETVLTQSPGTLSLSPGERATLSCRASQSLGSSYLAWYQQKPGQAPRLLIYGASSRAPGIPDRFSGSGSGTDFTLTISRLEPEDFAVYYCQQYADSPITFGQGTRLEIK
notes: GC1008 IgG4 variant
Turning to B5, the kd var/kd wt with human TGFβ1 came to 1.6; in the experiment with human TGFβ2 it was 1.5; in the experiment with human TGFβ3, 1.4.

B6: E74C (antibody, V domains shown)
VH: QVQLVQSGAEVKKPGSSVKVSCKASGYTFSSNVISWVRQAPGQGLEWMGGVIPIVDIANYAQRFKGRVTITADCSTSTTYMELSSLRSEDTAVYYCASTLGLVLDAMDYWGQGTLVTVSS
VL: ETVLTQSPGTLSLSPGERATLSCRASQSLGSSYLAWYQQKPGQAPRLLIYGASSRAPGIPDRFSGSGSGTDFTLTISRLEPEDFAVYYCQQYADSPITFGQGTRLEIK
notes: GC1008 IgG4 variant
Consider B6, for which the kd var/kd wt with human TGFβ1 is 1.7; with human TGFβ2 it was 0.8; with human TGFβ3, 0.7.

B7: D56T (antibody, V domains shown)
VH: QVQLVQSGAEVKKPGSSVKVSCKASGYTFSSNVISWVRQAPGQGLEWMGGVIPIVTIANYAQRFKGRVTITADESTSTTYMELSSLRSEDTAVYYCASTLGLVLDAMDYWGQGTLVTVSS
VL: ETVLTQSPGTLSLSPGERATLSCRASQSLGSSYLAWYQQKPGQAPRLLIYGASSRAPGIPDRFSGSGSGTDFTLTISRLEPEDFAVYYCQQYADSPITFGQGTRLEIK
notes: GC1008 IgG4 variant
As to B7, the values for the kd var/kd wt in the experiment with human TGFβ1, in the experiment with human TGFβ2 and with human TGFβ3 were 1.3, 1.5 and 1.2, respectively.

B8: D56K (antibody, V domains shown)
VH: QVQLVQSGAEVKKPGSSVKVSCKASGYTFSSNVISWVRQAPGQGLEWMGGVIPIVKIANYAQRFKGRVTITADESTSTTYMELSSLRSEDTAVYYCASTLGLVLDAMDYWGQGTLVTVSS
VL: ETVLTQSPGTLSLSPGERATLSCRASQSLGSSYLAWYQQKPGQAPRLLIYGASSRAPGIPDRFSGSGSGTDFTLTISRLEPEDFAVYYCQQYADSPITFGQGTRLEIK
notes: GC1008 IgG4 variant
B8: the kd var/kd wt in the experiment with human TGFβ1 is 1.1; with human TGFβ2, 1.3; with human TGFβ3, 0.7.

B9: D56V (antibody, V domains shown)
VH: QVQLVQSGAEVKKPGSSVKVSCKASGYTFSSNVISWVRQAPGQGLEWMGGVIPIVVIANYAQRFKGRVTITADESTSTTYMELSSLRSEDTAVYYCASTLGLVLDAMDYWGQGTLVTVSS
VL: ETVLTQSPGTLSLSPGERATLSCRASQSLGSSYLAWYQQKPGQAPRLLIYGASSRAPGIPDRFSGSGSGTDFTLTISRLEPEDFAVYYCQQYADSPITFGQGTRLEIK
notes: GC1008 IgG4 variant
With B9, the kd var/kd wt came to 1.6 in the experiment with human TGFβ1, 1.5 with human TGFβ2 and 1.3 with human TGFβ3.

B10: D56L (antibody, V domains shown)
VH: QVQLVQSGAEVKKPGSSVKVSCKASGYTFSSNVISWVRQAPGQGLEWMGGVIPIVLIANYAQRFKGRVTITADESTSTTYMELSSLRSEDTAVYYCASTLGLVLDAMDYWGQGTLVTVSS
VL: ETVLTQSPGTLSLSPGERATLSCRASQSLGSSYLAWYQQKPGQAPRLLIYGASSRAPGIPDRFSGSGSGTDFTLTISRLEPEDFAVYYCQQYADSPITFGQGTRLEIK
notes: GC1008 IgG4 variant
As to B10, the kd var/kd wt in the experiment with human TGFβ1 stood at 1.3; in the experiment with human TGFβ2, 1.4; in the experiment with human TGFβ3, 1.

B11: D56H (antibody, V domains shown)
VH: QVQLVQSGAEVKKPGSSVKVSCKASGYTFSSNVISWVRQAPGQGLEWMGGVIPIVHIANYAQRFKGRVTITADESTSTTYMELSSLRSEDTAVYYCASTLGLVLDAMDYWGQGTLVTVSS
VL: ETVLTQSPGTLSLSPGERATLSCRASQSLGSSYLAWYQQKPGQAPRLLIYGASSRAPGIPDRFSGSGSGTDFTLTISRLEPEDFAVYYCQQYADSPITFGQGTRLEIK
notes: GC1008 IgG4 variant
As to B11, the results for the kd var/kd wt with human TGFβ1, with human TGFβ2 and with human TGFβ3 were 1.1, 1.3 and 0.7, respectively.

B12: I52V (antibody, V domains shown)
VH: QVQLVQSGAEVKKPGSSVKVSCKASGYTFSSNVISWVRQAPGQGLEWMGGVVPIVDIANYAQRFKGRVTITADESTSTTYMELSSLRSEDTAVYYCASTLGLVLDAMDYWGQGTLVTVSS
VL: ETVLTQSPGTLSLSPGERATLSCRASQSLGSSYLAWYQQKPGQAPRLLIYGASSRAPGIPDRFSGSGSGTDFTLTISRLEPEDFAVYYCQQYADSPITFGQGTRLEIK
notes: GC1008 IgG4 variant
As for B12, the figures for the kd var/kd wt with human TGFβ1, with human TGFβ2 and in the experiment with human TGFβ3 were 0.9, 1.1 and 1.2, respectively.

B13: G101Y (antibody, V domains shown)
VH: QVQLVQSGAEVKKPGSSVKVSCKASGYTFSSNVISWVRQAPGQGLEWMGGVIPIVDIANYAQRFKGRVTITADESTSTTYMELSSLRSEDTAVYYCASTLYLVLDAMDYWGQGTLVTVSS
VL: ETVLTQSPGTLSLSPGERATLSCRASQSLGSSYLAWYQQKPGQAPRLLIYGASSRAPGIPDRFSGSGSGTDFTLTISRLEPEDFAVYYCQQYADSPITFGQGTRLEIK
notes: GC1008 IgG4 variant
Take B13: the kd var/kd wt in the experiment with human TGFβ1 is 1.9; in the experiment with human TGFβ2 it was 1.5; in the experiment with human TGFβ3, 2.

B14: I54A (antibody, V domains shown)
VH: QVQLVQSGAEVKKPGSSVKVSCKASGYTFSSNVISWVRQAPGQGLEWMGGVIPAVDIANYAQRFKGRVTITADESTSTTYMELSSLRSEDTAVYYCASTLGLVLDAMDYWGQGTLVTVSS
VL: ETVLTQSPGTLSLSPGERATLSCRASQSLGSSYLAWYQQKPGQAPRLLIYGASSRAPGIPDRFSGSGSGTDFTLTISRLEPEDFAVYYCQQYADSPITFGQGTRLEIK
notes: GC1008 IgG4 variant
As to B14, the kd var/kd wt in the experiment with human TGFβ1 is 1.8; in the experiment with human TGFβ2, 1.5; with human TGFβ3 it was 2.

B15: I54H (antibody, V domains shown)
VH: QVQLVQSGAEVKKPGSSVKVSCKASGYTFSSNVISWVRQAPGQGLEWMGGVIPHVDIANYAQRFKGRVTITADESTSTTYMELSSLRSEDTAVYYCASTLGLVLDAMDYWGQGTLVTVSS
VL: ETVLTQSPGTLSLSPGERATLSCRASQSLGSSYLAWYQQKPGQAPRLLIYGASSRAPGIPDRFSGSGSGTDFTLTISRLEPEDFAVYYCQQYADSPITFGQGTRLEIK
notes: GC1008 IgG4 variant
In the case of B15, the kd var/kd wt with human TGFβ1 came to 2.1; in the experiment with human TGFβ2 it was 1.4; in the experiment with human TGFβ3, 1.6.
